Reference: patent publication US20250270332A1
Each block holds one binder with its values, some of them ahead of it.

Target: FZD1/2/4/5/7/8
Assay: cell-based or functional assay

% Wnt Maxima Avg: 57% | EC50 (nM), TOPFLASH assay: 0.3 nM | Maximal Signal (% Wnt3a maxima) (% Wnt3a maxima): 57 | Topflash EC50 (nM) Avg: 0.3 nM
B1: CT0001 (bispecific antibody)
heavy 1: EVQLVESGGGLVQPGGSLRLSCAASGFNIHSSSIHWVRQAPGKGLEWVAATYSSFGSITYADSVKGRFTISADTSKNTAYLQMNSLRAEDTAVYYCARYHHPFGYALDYWGQGTLVTVSSASTKGPSVFPLAPSSKSTSGGTAALGCLVKDYFPEPVTVSWNSGALTSGVHTFPAVLQSSGLYSLSSVVTVPSSSLGTQTYICNVNHKPSNTKVDKKVEPKSCDKTHTCPPCPAPELLGGPSVFLFPPKPKDTLMISRTPEVTCVVVDVSHEDPEVKFNWYVDGVEVHNAKTKPREEQYNSTYRVVSVLTVLHQDWLNGKEYKCKVSNKALPAPIEKTISKAKGQPREPQVYTLPPIRELMTSNQVSLSCAVKGFYPSDIAVEWESNGQPENNYKTTPPVLDSDGSFFLVSKLTVDKSRWQQGNVFSCSVMHEALHNHYTQKSLSLSPGKSGSETPGTSESATPESGGGEVQLVESGGGLVQPGGSLRLSCAASGFNISSYYIHWVRQAPGKGLEWVASIYSSYGYTSYADSVKGRFTISADTSKNTAYLQMNSLRAEDTAVYYCARTVRGSKKPYFSGWAMDYWGQGTLVTVSSGGGGSDIQMTQSPSSLSASVGDRVTITCRASQSVSSAVAWYQQKPGKAPKLLIYSASSLYSGVPSRFSGSRSGTDFTLTISSLQPEDFATYYCQQYSWGPFTFGQGTKVEIK
heavy 2: EVQLVESGGGLVQPGGSLRLSCAASGFNIHSSSIHWVRQAPGKGLEWVAATYSSFGSITYADSVKGRFTISADTSKNTAYLQMNSLRAEDTAVYYCARYHHPFGYALDYWGQGTLVTVSSASTKGPSVFPLAPSSKSTSGGTAALGCLVKDYFPEPVTVSWNSGALTSGVHTFPAVLQSSGLYSLSSVVTVPSSSLGTQTYICNVNHKPSNTKVDKKVEPKSCDKTHTCPPCPAPELLGGPSVFLFPPKPKDTLMISRTPEVTCVVVDVSHEDPEVKFNWYVDGVEVHNAKTKPREEQYNSTYRVVSVLTVLHQDWLNGKEYKCKVSNKALPAPIEKTISKAKGQPREPMVFDLPPSREEMTKNQVSLWCMVKGFYPSDIAVEWESNGQPENNYKTTPPVLDSDGSFFLYSKLTVDKSRWQQGNVFSCSVMHEALHNHYTQKSLSLSPGKSGSETPGTSESATPESGGGEVQLVESGGGLVQPGGSLRLSCAASGFNISYSSIHWVRQAPGKGLEWVAYISSYYGYTYYADSVKGRFTISADTSKNTAYLQMNSLRAEDTAVYYCARAHYFPWAGAMDYWGQGTLVTVSSGGGGSDIQMTQSPSSLSASVGDRVTITCRASQSVSSAVAWYQQKPGKAPKLLIYSASSLYSGVPSRFSGSRSGTDFTLTISSLQPEDFATYYCQQYYWPITFGQGTKVEIK
light: DIQMTQSPSSLSASVGDRVTITCRASQSVSSAVAWYQQKPGKAPKLLIYSASSLYSGVPSRFSGSRSGTDFTLTISSLQPEDFATYYCQQGVYLFTFGQGTKVEIKRTVAAPSVFIFPPSDEQLKSGTASVVCLLNNFYPREAKVQWKVDNALQSGNSQESVTEQDSKDSTYSLSSTLTLSKADYEKHKVYACEVTHQGLSSPVTKSFNRGEC

% Wnt Maxima Avg: 52% | EC50 (nM), TOPFLASH assay: 0.3 nM | Maximal Signal (% Wnt3a maxima) (% Wnt3a maxima): 52 | Topflash EC50 (nM) Avg: 0.3 nM
B2: CM0126 (Dia-Fc-Dia) (bispecific antibody)
chain 1: MNLLLILTFVAAAVAEFEVQLVESGGGLVQPGGSLRLSCAASGFNIHSSSIHWVRQAPGKGLEWVAATYSSFGSITYADSVKGRFTISADTSKNTAYLQMNSLRAEDTAVYYCARYHHPFGYALDYWGQGTLVTVSSGGGGSDIQMTQSPSSLSASVGDRVTITCRASQSVSSAVAWYQQKPGKAPKLLIYSASSLYSGVPSRFSGSRSGTDFTLTISSLQPEDFATYYCQQGVYLFTFGQGTKVEIKLEDKTHTKVEPKSSDKTHNCPPCPAPELLGGPSVFLFPPKPKDTLMISRTPEVTCVVVDVSHEDPEVKFNWYVDGVEVHNAKTKPREEQYNSTYRVVSVLTVLHQDWLNGKEYKCKVSNKALPAPIEKTISKAKGQPREPQVYTLPPIRELMTSNQVSLSCAVKGFYPSDIAVEWESNGQPENNYKTTPPVLDSDGSFFLVSKLTVDKSRWQQGNVFSCSVMHEALHNHYTQKSLSLSPGKSGSETPGTSESATPESGGGEVQLVESGGGLVQPGGSLRLSCAASGFNISSYYIHWVRQAPGKGLEWVASIYSSYGYTSYADSVKGRFTISADTSKNTAYLQMNSLRAEDTAVYYCARTVRGSKKPYFSGWAMDYWGQGTLVTVSSGGGGSDIQMTQSPSSLSASVGDRVTITCRASQSVSSAVAWYQQKPGKAPKLLIYSASSLYSGVPSRFSGSRSGTDFTLTISSLQPEDFATYYCQQYSWGPFTFGQGTKVEIK
chain 2: MNLLLILTFVAAAVAEFEVQLVESGGGLVQPGGSLRLSCAASGFNIHSSSIHWVRQAPGKGLEWVAATYSSFGSITYADSVKGRFTISADTSKNTAYLQMNSLRAEDTAVYYCARYHHPFGYALDYWGQGTLVTVSSGGGGSDIQMTQSPSSLSASVGDRVTITCRASQSVSSAVAWYQQKPGKAPKLLIYSASSLYSGVPSRFSGSRSGTDFTLTISSLQPEDFATYYCQQGVYLFTFGQGTKVEIKLEDKTHTKVEPKTSDKTHTCPPCPAPELLGGPSVFLFPPKPKDTLMISRTPEVTCVVVDVSHEDPEVKFNWYVDGVEVHNAKTKPREEQYNSTYRVVSVLTVLHQDWLNGKEYKCKVSNKALPAPIEKTISKAKGQPREPMVFDLPPSREEMTKNQVSLWCMVKGFYPSDIAVEWESNGQPENNYKTTPPVLDSDGSFFLYSKLTVDKSRWQQGNVFSCSVMHEALHNHYTQKSLSLSPGKSGSETPGTSESATPESGGGEVQLVESGGGLVQPGGSLRLSCAASGFNISYSSIHWVRQAPGKGLEWVAYISSYYGYTYYADSVKGRFTISADTSKNTAYLQMNSLRAEDTAVYYCARAHYFPWAGAMDYWGQGTLVTVSSGGGGSDIQMTQSPSSLSASVGDRVTITCRASQSVSSAVAWYQQKPGKAPKLLIYSASSLYSGVPSRFSGSRSGTDFTLTISSLQPEDFATYYCQQYYWPITFGQGTKVEIK
